From PMC4369446 (2015)
One block for each binder: values may come before it.

What was measured:
Assay in all cases: cytokine release
[1] = target: T1, Prostaglandin transporter peptide on HLA-A*02:01 (human)
T1 peptide: LLAGIGTVPI

[2] = target: T2, SLC1A1 peptide on HLA-A*02:01 (human)
T2 peptide: VLTGLAIHSI

[3] = target: T3, ABC transporter MOAT-C peptide on HLA-A*02:01 (human)
T3 peptide: RISDIGLADL

[4] = target: T4, MRP3 peptide on HLA-A*02:01 (human)
T4 peptide: NVADIGFHDV

[5] = target: T5, Hypothetical 20 kD protein peptide on HLA-A*02:01 (human)
T5 peptide: RISAIILHPN

[6] = target: T6, IGHG1 peptide on HLA-A*02:01 (human)
T6 peptide: RLSELAIFGV

[7] = target: T7, G-protein coupled receptor RE2 peptide on HLA-A*02:01 (human)
T7 peptide: RITDLGLSPH

[8] = target: T8, KIAA0935 peptide on HLA-A*02:01 (human)
T8 peptide: RVTDEAGHPV

[9] = target: T9, P47 peptide on HLA-A*02:01 (human)
T9 peptide: RISDIRLFIV

[10] = target: T10, cMOAT2 peptide on HLA-A*02:01 (human)
T10 peptide: NVADIGLHDV

[11] = target: T11, Monocarboxylate transporter 8 peptide on HLA-A*02:01 (human)
T11 peptide: AVAFIGLHTS

[12] = target: T12, KIAA0735 peptide on HLA-A*02:01 (human)
T12 peptide: LISGIGIGGA

[13] = target: T13, Endothelin-1 receptor peptide on HLA-A*02:01 (human)
T13 peptide: RVQGIGIPLV

B1: SIG35α / TRBV27 Cl.1086 (TCR)
alpha TRAV12-2 J35 CDR3: CAVSIGFGNVL
beta TRBV27 TRBJ1-2 CDR3: CASSLHGPGGYTF
- binding result [1]: recognises
- binding result [2]: no recognition
- binding result [3]: no recognition
- binding result [4]: no recognition
- binding result [5]: no recognition
- binding result [6]: no recognition
- binding result [7]: no recognition
- binding result [8]: no recognition
- binding result [9]: no recognition
- binding result [10]: no recognition
- binding result [11]: no recognition
- binding result [12]: no recognition
- binding result [13]: no recognition

B2: SIG35α / TRBV27 Cl.1593 (TCR)
alpha TRAV12-2 J35 CDR3: CAVSIGFGNVL
beta TRBV27 TRBJ1-5 CDR3: CASGNNQPQHF
- binding result [1]: recognises
- binding result [2]: no recognition
- binding result [3]: no recognition
- binding result [4]: no recognition
- binding result [5]: no recognition
- binding result [6]: no recognition
- binding result [7]: recognises
- binding result [8]: no recognition
- binding result [9]: no recognition
- binding result [10]: no recognition
- binding result [11]: no recognition
- binding result [12]: recognises
- binding result [13]: no recognition

B3: SIG35α / TRBV27 Cl.1599 (TCR)
alpha TRAV12-2 J35 CDR3: CAVSIGFGNVL
beta TRBV27 TRBJ1-1 CDR3: CASSFLGAMAEAFF
- binding result [1]: recognises
- binding result [2]: no recognition
- binding result [3]: no recognition
- binding result [4]: no recognition
- binding result [5]: no recognition
- binding result [6]: no recognition
- binding result [7]: recognises
- binding result [8]: no recognition
- binding result [9]: no recognition
- binding result [10]: no recognition
- binding result [11]: no recognition
- binding result [12]: recognises
- binding result [13]: no recognition

B4: SIG35α / TRBV27 Cl.794 (TCR)
alpha TRAV12-2 J35 CDR3: CAVSIGFGNVL
beta TRBV27 TRBJ1-2 CDR3: CASSLLGDYGYTF
- binding result [1]: recognises
- binding result [2]: no recognition
- binding result [3]: no recognition
- binding result [4]: no recognition
- binding result [5]: no recognition
- binding result [6]: no recognition
- binding result [7]: recognises
- binding result [8]: no recognition
- binding result [9]: no recognition
- binding result [10]: no recognition
- binding result [11]: no recognition
- binding result [12]: recognises
- binding result [13]: no recognition

B5: SIG35α / TRBV27 Cl.413 (TCR)
alpha TRAV12-2 J35 CDR3: CAVSIGFGNVL
beta TRBV27 TRBJ1-4 CDR3: CASSVFGGDMGEKLFF
- binding result [1]: recognises
- binding result [2]: no recognition
- binding result [3]: no recognition
- binding result [4]: no recognition
- binding result [5]: no recognition
- binding result [6]: no recognition
- binding result [7]: no recognition
- binding result [8]: no recognition
- binding result [9]: no recognition
- binding result [10]: no recognition
- binding result [11]: no recognition
- binding result [12]: no recognition
- binding result [13]: no recognition

B6: SIG35α / TRBV27 Cl.788 (TCR)
alpha TRAV12-2 J35 CDR3: CAVSIGFGNVL
beta TRBV27 TRBJ2-7 CDR3: CASGPSYEQYF
- binding result [1]: recognises
- binding result [2]: no recognition
- binding result [3]: no recognition
- binding result [4]: no recognition
- binding result [5]: no recognition
- binding result [6]: no recognition
- binding result [7]: recognises
- binding result [8]: no recognition
- binding result [9]: no recognition
- binding result [10]: no recognition
- binding result [11]: no recognition
- binding result [12]: no recognition
- binding result [13]: no recognition

B7: SIG35α / TRBV27 Cl.1606 (TCR)
alpha TRAV12-2 J35 CDR3: CAVSIGFGNVL
beta TRBV27 TRBJ2-7 CDR3: CASSLLGSYEQYF
- binding result [1]: recognises
- binding result [2]: recognises
- binding result [3]: no recognition
- binding result [4]: no recognition
- binding result [5]: no recognition
- binding result [6]: no recognition
- binding result [7]: recognises
- binding result [8]: no recognition
- binding result [9]: no recognition
- binding result [10]: no recognition
- binding result [11]: no recognition
- binding result [12]: recognises
- binding result [13]: no recognition

Next, values leading:

- binding result [1]: recognises
- binding result [2]: no recognition
- binding result [3]: no recognition
- binding result [4]: no recognition
- binding result [5]: no recognition
- binding result [6]: no recognition
- binding result [7]: recognises
- binding result [8]: no recognition
- binding result [9]: no recognition
- binding result [10]: no recognition
- binding result [11]: no recognition
- binding result [12]: no recognition
- binding result [13]: no recognition
B8: SIG35α / TRBV27 Cl.758 (TCR)
alpha TRAV12-2 J35 CDR3: CAVSIGFGNVL
beta TRBV27 TRBJ2-2 CDR3: CASSPRLAGDGELFF

- binding result [1]: recognises
- binding result [2]: recognises
- binding result [3]: no recognition
- binding result [4]: no recognition
- binding result [5]: no recognition
- binding result [6]: no recognition
- binding result [7]: recognises
- binding result [8]: no recognition
- binding result [9]: no recognition
- binding result [10]: no recognition
- binding result [11]: no recognition
- binding result [12]: recognises
- binding result [13]: no recognition
B9: SIG35α / TRBV27 Cl.1574 (TCR)
alpha TRAV12-2 J35 CDR3: CAVSIGFGNVL
beta TRBV27 TRBJ1-1 CDR3: CASSPWERINTEAFF

- binding result [1]: recognises
- binding result [2]: no recognition
- binding result [3]: no recognition
- binding result [4]: no recognition
- binding result [5]: no recognition
- binding result [6]: no recognition
- binding result [7]: recognises
- binding result [8]: no recognition
- binding result [9]: no recognition
- binding result [10]: no recognition
- binding result [11]: no recognition
- binding result [12]: recognises
- binding result [13]: no recognition
B10: SIG35α / TRBV27 Cl.523 (TCR)
alpha TRAV12-2 J35 CDR3: CAVSIGFGNVL
beta TRBV27 TRBJ2-7 CDR3: CASGSYEQYF
